Assay results from patent US20200283536A1 (Pfizer, published 2020).
Where two headings read alike, the source gives them in different places.

Assays:
Assay in all cases: cell-based or functional assay
[1] = biological target: T1, CD123 (alpha chain of the interleukin-3 receptor) (human, UniProt P26951 19-378)
[2] = biological target: T1, CD123 (alpha chain of the interleukin-3 …); remark: listed apart in the source
[3] = biological target: T1, CD123 (alpha chain of the interleukin-3 …); remark: listed apart in the source
[4] = biological target: T1, CD123 (alpha chain of the interleukin-3 …); remark: listed apart in the source

T1 sequence (P26951 19-378): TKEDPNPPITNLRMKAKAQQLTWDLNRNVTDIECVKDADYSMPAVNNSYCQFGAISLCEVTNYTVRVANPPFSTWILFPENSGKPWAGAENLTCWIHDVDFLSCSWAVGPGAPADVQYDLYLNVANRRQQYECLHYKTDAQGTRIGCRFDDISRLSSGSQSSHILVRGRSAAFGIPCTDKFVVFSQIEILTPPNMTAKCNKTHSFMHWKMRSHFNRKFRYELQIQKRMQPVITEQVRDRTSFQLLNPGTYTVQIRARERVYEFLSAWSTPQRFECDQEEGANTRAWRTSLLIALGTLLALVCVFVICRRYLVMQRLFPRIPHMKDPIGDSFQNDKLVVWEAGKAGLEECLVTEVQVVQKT

Row | Binder | IC50 (ng/mL), cytotoxicity in MOLM13 cells, IL-3 at 0 ng/ml [1] [ng/mL] | IC50 (ng/mL), cytotoxicity in MOLM13 cells, IL-3 at 0.3 ng/ml [1] [ng/mL] | IC50 (ng/mL), cytotoxicity in MOLM13 cells, IL-3 at 1 ng/ml [1] [ng/mL] | IC50 (ng/mL), cytotoxicity in MV4-11 cells, IL-3 at 0 ng/ml [1] [ng/mL] | IC50 (ng/mL), cytotoxicity in MV4-11 cells, IL-3 at 0.3 ng/ml [1] [ng/mL] | IC50 (ng/mL), cytotoxicity in MV4-11 cells, IL-3 at 1 ng/ml [1] [ng/mL] | IC50 (ng/mL), 2D in vitro cytotoxicity (CelltiterGlo, 96 hours), JVM3 cells (CD123 ++) [2] [ng/mL] | IC50 (ng/mL), 2D in vitro cytotoxicity (CelltiterGlo, 96 hours), MOLM13 cells (CD123 +++) [2] [ng/mL] | IC50 (ng/mL), 2D in vitro cytotoxicity (CelltiterGlo, 96 hours), MV411 cells (CD123 +++) [2] [ng/mL] | further results
1 | h18G3-AcLysValCitPABC-DMAE-CO_CPI-000638314 (antibody, IgG1, V domains shown, AcLysValCitPABC-DMAE-CO_CPI linker-agent conjugated site-specifically at Q296 (LLQG tag), DAR ~2) VH: EVQLVESGGGLVQPGGSLRLSCAASGFSLTSGDISWVRQAPGKGLEWVAVIWSGGGTNYGSRLMSRFTISRDNAKNSLYLQMNSLRAEDTAVYYCARDWGNFYFDYWGQGTLVTVSS VL: DIQMTQSPSSLSASVGDRVTITCKSSQSLLSSGTRKNYLAWYQQKPGKAPKLLIYWASTRQSGVPSRFSGSGSGTDFTLTISSLQPEDFATYYCSQSYNLYTFGQGTKLEIKR | 0.14 | 0.12 | 0.14 | 1.07 | 1.05 | 0.21 | 0.69 | 0.25 | 0.41 | IC50 (ng/mL), 2D in vitro cytotoxicity (CelltiterGlo, 96 hours), Granta519 cells (CD123 ++) [2]: 0.38 ng/mL; IC50 (ng/mL), 2D in vitro cytotoxicity (CelltiterGlo, 96 hours), NB4 cells (CD123 +) [2]: 63.9 ng/mL; IC50 (ng/mL), 2D in vitro cytotoxicity (CelltiterGlo, 96 hours), OCI-AML3 cells (CD123 +) [2]: 2.65 ng/mL
2 | 3D1-CPI (antibody, V domains shown, CPI agent through an AcLysValCitPABC linker, DAR ~2; site not stated for this antibody) VH: EVQLQQSGPELVKPGASVKMSCKASGYTFSDYFMKWVKQSHGKRLEWIGDINPNNGETFYNHHFKGKATLTIDKSSSTAYMQLNSLTSDDSAVYYCARPRRGNAMDFWGQGTSVTVSS VL: not shown |  |  |  |  |  |  |  | 0.33 |  | 
3 | 20D7-CPI (antibody, V domains shown, CPI agent through an AcLysValCitPABC linker, DAR ~2; site not stated for this antibody) VH: EVQLVESGGGLVQPGGSLRLSCAASGYSITDFLMYWVRQAPGKGLEWVAWIDPEDGETKYAQKFQSKARFTISRDNAKNSLYLQMNSLRAEDTAVYYCARWGYITDYFYGGFTYWGRGTLVTVSS VL: DIQMTQSPPVLSASVGDRVTLSCKASQNINKNLDWYQQKHGEAPKLLIYHTNTLQMGIPSRFSGSGSGTDYALTITSLQPEDVATYYCYQYNSGPTFGAGTKLELRR |  |  |  |  |  |  |  | 0.32 |  | 
4 | 18G3 conjugated to iPr-calicheamicin (antibody, V domains shown, iPr-calicheamicin conjugated; linker and site not stated) VH: EVQLVESGGGLVQPGGSLRLSCAASGFSLTSGDISWVRQAPGKGLEWVAVIWSGGGTNYGSRLMSRFTISRDNAKNSLYLQMNSLRAEDTAVYYCARDWGNFYFDYWGQGTLVTVSS VL: DIQMTQSPSSLSASVGDRVTITCKSSQSLLSSGTRKNYLAWYQQKPGKAPKLLIYWASTRQSGVPSRFSGSGSGTDFTLTISSLQPEDFATYYCSQSYNLYTFGQGTKLEIKR |  |  |  |  |  |  |  |  |  | IC50 (ng/mL), in vitro cytotoxicity, MOLM13 cells (CD123 +++) [3]: 0.0508 ng/mL; IC50 (ng/mL), in vitro cytotoxicity, MV4-11 cells (CD123 +++) [3]: 0.125 ng/mL
5 | 18G3 conjugated to CTI (glucuronide) (antibody, V domains shown, CTI (glucuronide) agent conjugated; linker and site not stated) VH: EVQLVESGGGLVQPGGSLRLSCAASGFSLTSGDISWVRQAPGKGLEWVAVIWSGGGTNYGSRLMSRFTISRDNAKNSLYLQMNSLRAEDTAVYYCARDWGNFYFDYWGQGTLVTVSS VL: DIQMTQSPSSLSASVGDRVTITCKSSQSLLSSGTRKNYLAWYQQKPGKAPKLLIYWASTRQSGVPSRFSGSGSGTDFTLTISSLQPEDFATYYCSQSYNLYTFGQGTKLEIKR |  |  |  |  |  |  |  |  |  | IC50 (ng/mL), in vitro cytotoxicity, Granta519 cells (CD123 ++) [4]: 0.26 ng/mL; IC50 (ng/mL), in vitro cytotoxicity, JVM3 cells (CD123 ++) [4]: 1.3 ng/mL; IC50 (ng/mL), in vitro cytotoxicity, MOLM13 cells (CD123 +++) [4]: 0.33 ng/mL; IC50 (ng/mL), in vitro cytotoxicity, MV411 cells (CD123 +++) [4]: 0.51 ng/mL; IC50 (ng/mL), in vitro cytotoxicity, NB4 cells (CD123 +) [4]: 38.6 ng/mL; IC50 (ng/mL), in vitro cytotoxicity, OCI-AML3 cells (CD123 +) [4]: 2.58 ng/mL
6 | 16D6-CPI (antibody, V domains shown, CPI agent through an AcLysValCitPABC linker, DAR ~2; site not stated for this antibody) VH: QVQLKESGPGLVAPSQSLSITCTVSGFSLTNFDISWIRQPPGKGLEWLGVMWTGGGTNYNSAFMSRLSISRDISKSQVSLKMSSLQTDDTAIYYCVRGDTYFFAMDYWGQGTSVTVSS VL: DIVMSQSPSSLAVSAGEKVTMSCKSSQSLLSSGTRKNFLSWYQQKTGQSPKLLIYWASTRGSGVPDRFTGSGSGTDFTLTISSVQTEDLAVYYCKQSYNLYTFGGGTKLEIKR | 0.23 | 0.23 | 0.19 | 1.25 | 1.13 | 1.13 | 0.59 | 0.22 | 0.4 | 
